Measurements: patent US20200407456A1 (AP BIOSCIENCES, published 2020)

What was measured:
[1] = target: T1, CD137 expressed on cells (HEK-293F/CD137 cells); PMA/ionomycin-activated Jurkat cells; CD137 reporter HEK293 … (UniProt Q07011 24-255, limits assumed); assay: flow cytometry on HEK-293F/CD137 cells, antibody 50 µg/ml, anti-human Fc-A488
T1 construct: whole, on cells; One entry is used for CD137 on transfected HEK293/293F cells and for CD137 induced on Jurkat cells; also called 293F cells stably expressing CD137; CD137-overexpressing HEK-293F cells

[2] = target: T2, recombinant human CD137-ECD-Fc (APBio Inc.) (human, UniProt Q07011 24-186); assay: ELISA on coated human CD137-IgG4 Fc
T2 construct: extracellular domain; Made by APBio; also called CD137-Fc recombinant protein; recombinant CD137/Fc; not shown: IgG4 Fc
T2 sequence (Q07011 24-186): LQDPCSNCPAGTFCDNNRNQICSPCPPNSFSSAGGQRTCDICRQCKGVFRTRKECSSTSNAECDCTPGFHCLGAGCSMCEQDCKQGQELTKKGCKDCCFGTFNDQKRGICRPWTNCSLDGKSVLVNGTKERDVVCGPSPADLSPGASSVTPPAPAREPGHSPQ

T1 sequence (Q07011 24-255 limits assumed): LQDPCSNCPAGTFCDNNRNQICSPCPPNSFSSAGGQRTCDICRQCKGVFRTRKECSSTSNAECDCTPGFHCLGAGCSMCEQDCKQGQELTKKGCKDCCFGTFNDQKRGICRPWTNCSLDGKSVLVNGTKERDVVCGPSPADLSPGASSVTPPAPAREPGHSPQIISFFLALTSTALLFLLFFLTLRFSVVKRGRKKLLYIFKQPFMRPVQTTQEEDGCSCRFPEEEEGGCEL

Row | binding result [1] | binding result [2] | Binder
1 | binds |  | anti-CD137 antibody clone 15 (antibody, human IgG4 S228P, lambda, V domains shown, also called CD137 #15; anti-CD137#15) VH: QVQLVQSGAEVKKPGSSVKVSCKASGGTFSSYAISWVRQAPGQGLEWMGRIIPILGIANYAQKFQGRVTITADKSTSTAYMELSSLRSEDTAVYYCASDLYQLLFPYYYGMDVWGQGTTVTVSS VL: QLVLTQPPSASASLGASVTLTCTLSSGYSNYKVDWYQQRPGKGPRFVMRVGTGGIVGSKGDGIPDRFSVLGSGLNRYLTIKNIQEEDESDYHCGADHGSGSNLFWVFGGGTKLTVLG
2 | binds | binds | anti-CD137 antibody clone 54 (antibody, human IgG4 S228P, lambda, V domains shown, also called CD137 #54; CD137#54) VH: QVQLVQSGAEVKKPGSTVKVSCKASGGTFSSYAISWVRQAPGQGLEWMGRIIPILGIANYAQKFQGRVTITADKSTSTAYMELSSLRSEDTAVYYCASPPYYDSSGYYPLGAFDIWGQGTMVTVSS VL: SYELTQPPSVSVSPGQTASITCSGDKLGEKYASWYQQKAGQSPILVIYQDSKRPSGIPERFSGSNSGNTATLTISGLQAGDEADYYCQAWDGSSTYVFGTGTKVTVFG
3 | binds | binds | anti-CD137 antibody clone 31 (antibody, human IgG4 S228P, lambda, V domains shown, also called CD137 #31; anti-CD137#31) VH: not shown VL: QSALTQPASVSGSPGQSITISCTGTSSDVGAYNFVSWYQQRPGKAPELMIYDVSDRPSGVSNRFSGSKSGNTASLTISGLQTEDEADYYCSSYTSSITRYVFGTGTKVTVLG
